Experimental data as given in patent US20120328625A1.
Values belong to the substance of their own block, whether it stands above or below them.

Tests used:
[1] = target: Shh-N in conditioned medium (human) (UniProt Q15465); assay: cell-based or functional assay
[2] = target: full length human Shh expressed on the cell surface (human) (UniProt Q15465); assay: cell-based or functional assay
[3] = target: full length human Shh expressed on the cell surface (human) (UniProt Q15465); assay: FMAT, antibody 10 µg/ml on 293T cells transiently expressing human Shh
[4] = target: full length human Shh expressed on the cell surface (human) (UniProt Q15465); assay: flow cytometry, transfected against parental 293T cells; antibody 2 ug/ml
[5] = target: full length human Shh expressed on the cell surface (human) (UniProt Q15465); assay: flow cytometry, transfected against parental 293T cells; antibody 0.02 ug/ml
[6] = target: full length human Shh expressed on the cell surface (human) (UniProt Q15465); assay: flow cytometry, transfected against parental 293T cells; antibody 0.2 ug/ml
[7] = target: full length human Shh expressed on the cell surface (human) (UniProt Q15465); assay: flow cytometry, antibody 2 µg/ml, 293T cells transiently expressing human Shh
[8] = target: full length human Shh expressed on the cell surface (human) (UniProt Q15465); assay: flow cytometry, 293T cells transiently transfected with human Shh; antibody 2 ug/ml
[9] = target: full length human Shh expressed on the cell surface (human) (UniProt Q15465); assay: flow cytometry, 293T cells transiently transfected with human Shh; antibody 0.2 ug/ml
[10] = target: biotinylated human Shh (human) (UniProt Q15465); assay: ELISA, biotin-Shh coated at 500 ng/ml on neutravidin; antibody 1 ug/ml
[11] = target: full length human Shh expressed on the cell surface (human) (UniProt Q15465); assay: flow cytometry, transfected against parental 293T cells
[12] = target: full length human Shh expressed on the cell surface (human) (UniProt Q15465); assay: flow cytometry, 293T cells transiently transfected with human Shh; antibody 0.02 ug/ml

IC50, inhibition of osteoblast differentiation (alkaline phosphatase) of C3H10T1/2 cells [1]: 2.9 nM
Substance: 5E1 (antibody)

% Inhibition of Gli1 reporter, Co-Culture N = 1, 20 µg/ml [2]: 18%
% Inhibition of Gli1 reporter, Co-Culture N = 2, 20 µg/ml [2]: 7%
% Inhibition of Gli1 reporter, Co-Culture N = 3, 20 µg/ml [2]: 2%
% Inhibition of Gli1 reporter, Conditioned Media N = 1, 20 µg/ml [1]: 2%
% Inhibition of Gli1 reporter, Conditioned Media N = 2, 20 µg/ml [1]: 23%
Substance: huIgG2/4 (antibody)

FL1 X COUNT [3]: 1.47e+06
Ratio [4]: 443
Ratio [5]: 13.7
Ratio [6]: 106
X Geo Mean (Transients) [7]: 3
X Geo Mean (Transients) [8]: 965
X Geo Mean (Transients) [9]: 221
OD [10]: 4.81 OD
Ratio [11]: 0.7
X Geo Mean (Transients) [12]: 28.5
Substance: rat anti-Shh antibody (cat# MAB4641, R&D Systems, Inc.)
